Assay results reported in the domain aggregation screens of Martell et al. (2025).

Experiment: soluble fraction after stress (log2 fold change); higher = more stays soluble; pooled small domains, quantitative proteomics
Details: stress: 75 degC
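Further: 20 min heating vs room temperature control held 20 min.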

Sequence	soluble fraction (log2)
HMVEPTDFTYLKAEVETAKALKQADYTVATWKSFAGELAEAEEVIAKTDASQAEVNEALSHLQAAEKELV	0.23
HMVETDQESSLIQAIYKYFEITGDNTFFDEKVGEKTVADRMEWAMDYLIQNRFSEEYGLIWGA	-0.285
HMVFADRLRALRKKSGLTQDEFSKQTGIGRSAVGMYESGKREPNYTTLSKVARFYHVSTDYLLGRTDTP	-1.52
HMVFQTAAEKAYEIISKKIMKGEYEPGMRLVRRQLAQELGVSPIPILEAMKRLEQDGLIEYKAHWGSIVTI	-2.29
HMVFRFELQPSSATPLYRQIVEQVTRAVAAGVLRDGEELPSVRAVAQEYVINPMTVSKAYSLLEAQSI	-0.366
HMVFSNLGSRGEEVRQIQTKLKELGYLQGNVDGIYGNQTKQAVTAFQRDHGLSADGIAGEKTLAALGIG	0.636
HMVGAEDISKPMNLGALMRTAHAFGASFFFTINAHPKVRHAYNSDTSRSFDHMPYYPWDTMEE	0.151
HMVGDLPPQELRVFELIGDGLSNREIADEMILAEKTIKNYVTSLLQKLGMQRRTEAAAFAARLDER	-0.0289
HMVGDMLTQKDSEGLTAYLYQQGIISQREMLLLNGILKDRVLTGMEKGQRDSVRASMVQHLLAMLNMM	-1.94
HMVGEQISYIPLKFATASEVVKSLTSMFQQQKGIAPIRIVAEERTNAILLLASEADTARVKNLIAMMDKGV	-2.15
HMVGGIAIGQFNVPRGSVKVTAGGRLLQEGLDYTVNYQAGRVQILDESLKNSNVPIEISTESNS	0.106
HMVGMDRYFKIKNIKDSSAAFERDYILHFLKENDWMVSKTAQMIGLERTTLYKKIKQLGLASMLEN	-3.24
HMVGQIISNARKQEKMTQSELAEKVGTNKTYISRIEKGVIEPGVGLFFRIIDALGLKIEIVKP	-2.07
HMVHSEDLQDHKYVSQLGEVFLKENPNYENIKKSWGDHMVVIKKFGRYPHRNKILNRKSTPEELEFLKG	-0.0435
HMVILPGEKMVVKIVQPGKEKGQGVGYLADGTMIVVDSGDKMIGQDVPTEITRVFQTVAGKMLFAVPVD	-0.73
HMVIMDLIVNGEPKYVVGEQLHLILDELGYSGKHFVVELNGEILSKEAYTTTKLTAADRLEIVSFVGG	-3.23
HMVITATYTDFMDALEADEVKQVQFSSTEINYTIEKGGHVQYFKTGVVDNPQLPQILREKGVTYAAEIP	-0.512
HMVITDPFFLEPENLVKDAVALMEKYRISGVPITKKGKLVGILTNRDLRFESNYEQPIANVMS	0.137
HMVITISEADVSGTYTKSITQGDWKYIRTWTPFEDERLYDLAKDPMELRDLAPAAPSKLAELRELLSALVS	-1.4
HMVIVMRKDADAASIEKVVSEVKSRGFMPHVSEGESRTLIGAIGPAPTEELREHFAGLAGVETVVRITK	-0.533
HMVKDIEFSLPLEQDYYKVLISVKDSQGKRQVYEELHRAGDTVYAAVRYYGSGELEIHLNGKFYKTIK	-0.868
HMVKDLEIETIRLNNLLASDAEEVLKSLGGAKPTYKAVAVPGSNSLVIEGTKADLIKLKSIINALEDGS	0.00865
HMVKETNYSFFLKQIDAGTVEQVQIEDTEIKFKVSTADGKEQVYSTVRVEDPDLVDRLYSKGNIDFTGN	-0.0797
HMVKIIHYEVYANRGDGWKLVDQFSADQRQEAVNLAKEIETEDQVAVKIIREIFDVQDNTYQESVEYIG	-1.59
HMVKLDDLTGQDKATAEATITNSGLKYSEQQEFSDEVEAGKVIRTDPGAGTSSLKAGDTVTVYVSRGPEN	0.215
HMVKNYYEILEVDKKASPEVIEKAYKTLAKKYHPDLQEAENNGQYEEKMKEINEAYSVLSDEFKRRTYDEQ	0.123

Sequence	soluble fraction (log2)
HMVKSYEVPDVSNLTVLEAEAKLQEMGFEIDEEQKEISSSDIESGRVVKTSPQAGSKRKEGAIITLYVSSG	0.65
HMVKTANVAYSEFLKLVESDNISDVSIVGRTITGHLDDGTKFSTYTPPNDPSLIDKLTRKNVIIKSAPE	0.0585
HMVKVEVKPNVLQWVIKRMDNFDRLKDQFPNIDKWINQESQPTLKQLEKLAKMTAVPLGYFFLPNPPEEK	-1.12
HMVLELRIGQIVRGVLLQLVGEREGIVSVGGVPVRARLEAEIPLGRGVMLQVQPGSDANNILLKPV	-3.01
HMVLENLKKFIDSKGISVSAFEKSIGMSNNSFRKSLNSGGHIGSDKLENILKIYPELNPVWLLQGEGEML	-0.589
HMVLGSSVAMGQKIGDSDLTWVEVPLSSAFDRFLSEPEWRGSSDLVAARLLEAGVFLTEDDVVE	0.0533
HMVLLGAAIRELRIQKGITIEELAEMSGLSTGLISKIERDLGNPSISSLRKISRALGVPTAFFFA	-3.28
HMVLSKGAKELLDFIMREGEVTTSKVVQKFGGSAQNASAKLKKLYATGLILGSKAVAESGGLEFVYKA	0.256
HMVLSVRERMGIVLEKVNTETFTDFKELFTVEEGRAGAIVSLLAILQLMKDSLIQLVQNEPNGPIYVKAA	-0.879
HMVLTSFHDNFPKTGTTYTVRSGDTISGIATKFGSTRDWIQNANEISHPKYLQVGRTLFIPH	-0.302
HMVMATPHNTAKAGDIAKTVIMPGDPLRAKYIADNYLDNAVQFNVVRNIYGYTGVYRGTDISVMASGM	0.212
HMVMETLAERINTALQTKGLSVNALARRVGVSYPAMRKITKGETLNPKFLFEIAEALGVSVEWLKTGEGSP	-1.34
HMVMNKQEFLKILRDTLQSQLSSRETENHVEYYRTYIEEQMREGKTEIEILDVLGDPRLIARTILET	-0.193
HMVMSTDAELILEYLAKHQGEMEITDKSSPELIMDTFNMSKGAFKRALGSLYKSKTVVIESTKVLLNT	-1.44
HMVNDQSIYASEGYVHIRSGKPVSLRIYTILGALYRHEERLVGDHVIALPRGLYIVVLNHTAKKIMV	-0.657
HMVNEALDEFFVGLKNLYESATGKPAIAGAHFDGEPKTDFEKLMYLGYQIIRPAQAYPSALKAYERAIARS	-0.145
HMVNHEERKRLIAEATWRTISHVGIEQASVRTIAKEAGLSLGALRYYFTTQEELLRFSMQLVQERV	-0.0767
HMVNIEAEVGRRLRQLRARRGLSLRALADLSGLNVNTLSLIENSKTSPSVSTLQQLARSLQVPITTFFESD	-1.36
HMVNKQERTYTILRDRIHSGSFAPLERLNIDALARELGVSPIPVREALRRLEAEGWVRFTPNVGAVVSP	-0.509
HMVNLLVTPLEELEINFRTLRALRKYNIYQLEDLLRFIKYNGFDALRIVPGMGIKSTEQLYEKLKDKNI	-0.112
HMVNTVEVQGNTIYSAEEIRSASGIQKGDNLFTLNKEAAAGSIKASLPYVETVSIIRFLPDKIVIEVKE	-0.57
HMVNVLKNSTVIDLVKNNLSDALIISLIRRAKVDFSLMTDDVIELSGKGVSPAVIMEMRQAMIRQASEIQN	-0.318
HMVNVTEAIDLENGTGKLSGTFNHEPKSAEEIIFLLKIDTNKWKLSQYWNKQMGDHWRVSALISQI	-2.82
HMVPAMEVALEDARRAIEQVVSGERTSVQLSSQEAMIRKLQHQMAKDANLFSRSSGVEPQRRVTIYTN	0.0142
HMVPHQPRVWTNTAGKTITAAFVRFNAAGRKVSLKLEKGRQVELPLASLSGNDVDWIKEHVPEAMSNQE	-1.06
HMVPISGADFEKLSDYILQKAGAGSIQVKELLAGLKGMHEKNLWKAIDYLLAEEKIRIDKGGNISVK	-0.322

Sequence	soluble fraction (log2)
HMVPQAVQDIKAYLASGALPYIGPATAKKIVAMFGSDALDVIAEHPEQLTAIRGLNEEKANAIHQEFRRQF	-0.259
HMVPSSHNIAQKVKQIKINDLWLDVRERYIYLKNLYLSHPLEKDHPSFIVYVEAVNQIYNQYF	-0.0707
HMVQDDLRELEGISTELLAKLADAGITNRDDLADLAIDELVAITGQSEDDAKALIMKAREHWFAGDA	0.0246
HMVQIIQLQGTDKRLYELVAPLVMNPEILKQNYNYPFRTSEDFVWFVAVDKKKVIGFIPVEEKKKEYVI	-0.108
HMVRKGEINFDQLSVRARNALRNMNILFEKEILKLTEYDLKSIPNLGVKTTNELLSYIKRLQTNQKEE	-1.47
HMVRRSERLHALTESLRRSGNRGRTAEQLATEFEVSVRTIKRDLVALEASGLPLWSRPGPGGGYGLLS	-0.953
HMVRTIKILGIKHNINLYYKNVKVPTMNVKNQTLEIILPNKYKKFQEEQILKVLTQKLYDKIAETEIEKIK	-1.11
HMVSAEQNTLEFIKENVKEDVIEDDIEFYKSLLEDWSVEVDNSSKLLDPGNNNSLLAVIAYSIENEL	0.232
HMVSDAWITGKVKSQLLADDVTPGMKIDVDTEDRIVSLKGTVPSLTARNEAIRIASHTKGVRTVDADELIV	0.17
HMVSFAEQASDWLAHFDRLGDVGPDTTLTDLTARDAEFSAWVNEGIHHRVAFLETLAAWHRTER	-0.627
HMVSGLEILKIQVQDHPSDWRWALLLARTHYENGNREAAVRTLRPLQRLHPDRLEVMTLWALLA	-0.194
HMVSGSPTVDILMQRGLEYQQQENLEAARDAFDRAINLKPDYAEAWNRRAVLFFNEGKYDEAIADLETAIT	0.136
HMVSKEELANSIYENKTADELGNIVLRKGKYSGEMLRTIYVKDIGYLEWHSKQSYEYSNAVKWYLKKLE	-1.37
HMVSLEEIINDLTSRIQTAVKMRFSDFVQNRKERVGVIVSFLGMLELVKQGIIDIKQEGHFADIEMETA	-0.347
HMVSLSENQKIVLESLNTAMSARELMEILNLSDISHFRRNILNPLLLEGLIVRTKPDKPKSSKQKYIKANF	-1.69
HMVSPEVEMLRAAVETMSERQKQVYELHYLRGFNVKETAAILGMSSPTVTAHKKRIMEIIKKFFE	-1.46
HMVSPFQQQIADKVHNEIIAAKFNYDNATNENERLLAQLQAKKARELANQYGLDMSSYGADTTAERS	0.61
HMVSSAEQQARDKESGMILVQEAGGPDKARALVEKMRQDIRNPALDGTRRQMLRGHVARIELALAELETG	-0.0254
HMVSVGDIFAGRIISNENGHLLLQLLDGSKISAQTVTDLKYNIGDVLNLEIIEEKQGLIFVRQT	-2.05
HMVSVLGRRIKELRLQNSMTQMQLAKKLGYKGNSLVAGWELGKNYPSVSSIKRLSEIFDTDLMKYVG	-2.53
HMVTDTGAIEKVIDEVIAANPKQVQEIADQRAAGHEKPKTLGWLVGQIMKASGGKVNPAAVNEILLKKLG	0.0887
HMVTFDEISQSLVRDVAARRSLSVQTLHAMVDRYNAGSSINAVANQYGIDRLKLREILIELGVHVAT	-2.4
HMVTLQEVKQYLRIDFEEEDPLLLSLLATAKQQVMNVGRMDEAQLSEHEDTARTAILYAVSYLYENRN	-1.82
HMVTPAQQARDTLLGALVGLARATTSEPKTDDTDVVLNAGLRLAAQPDAPEERLQRMLAIVQTEKHRV	0.138
